Biological target: ATP6V1D (UniProt Q9Y5K8)
Experiment: in vitro binding, anti-Flag pull-down
Conditions: reference: wild-type ATP6V1B2-Flag; sites Y68

## ATP6V1B2 (from UniProt P21281) ATP6V1B2(Y68F)-Flag
  binding against the reference: weaker
